According to patent US20130036481A1:

Target: α2β1 integrin on human cortical neurons (human) (UniProt P17301)
Assay: cell-based or functional assay

| Substance | EC50 of domain V inhibition of Aβ toxicity in human cortical neurons, domain V alone (FIG. 4) | EC50 of domain V inhibition of Aβ toxicity in human cortical neurons, in the presence of a mouse IgG control or the α2 antibodies 1950 and 1998 | EC50 of domain V inhibition of Aβ toxicity in human cortical neurons, in the presence of the αV integrin antibody | EC50 of domain V inhibition of Aβ toxicity in human cortical neurons, in the presence of the β1 integrin antibody | average EC50 of domain V inhibition of Aβ40 toxicity in human cortical neurons (alamarBlue viability, n=5 experiments) | EC50 of LG3 inhibition of Aβ40 toxicity in human cortical neurons (alamarBlue viability) |
| --- | --- | --- | --- | --- | --- | --- |
| Human perlecan Domain V, recombinant, C-terminal 6xHis tag (from UniProt P98160 3687-4391) (ligand) | 123 nM | 98 nM | 47 nM | < 38 nM | 164 nM | – |
| LG3 C-terminal domain of human perlecan Domain V (amino acids 4188-4391), C-terminal 6xHis tag (from UniProt P98160 4188-4391) (ligand) | – | – | – | – | – | 50 nM |
